This note sets out measurements from US6312907.

The target in assay [1] is Bovine decorin (Dcn) purified from fetal skin (bovine) (UniProt P21793). Nature of the assay: competition: Dcn-coated wells preincubated with 200 ng protein, then B. burgdorferi N40; ELISA. A general note: An ELISA detects its analyte on a solid surface through an enzyme-linked reagent.
The target is the same in assay [2]. Nature of the assay: microtiter wells coated with increasing amounts of Dbps, biotin-labeled Dcn bound for 1 hour.
Assay [3] addresses B. burgdorferi N40 spirochetes (low-passage, intact cells). Nature of the assay: competition: spirochetes preincubated with unlabeled competitor, then 125I-labeled Dcn.

With “DbpA:549 (recombinant polyhistidine fusion of DbpA of B. burgdorferi strain 297 lacking nine amino terminal residues)”, the percent inhibition of attachment of B. burgdorferi N40 to Dcn in assay [1] was 93%.

“DbpA:C25A (site-directed mutant of DbpA:549)”: the percent inhibition of attachment of B. burgdorferi N40 to Dcn in assay [1] is 93%. Also, in assay [2], the activity compared with DbpA:549 was < 80%.

On to aggrecan isolated from bovine cartilage, for which the percent inhibition of binding of 125I-labeled Dcn in assay [3] is < 10%.

For “bovine serum albumin (BSA) (from UniProt P02769)”, the percent inhibition of binding of 125I-labeled Dcn in assay [3] is < 10%.

For fetuin type IV (Sigma), the percent inhibition of binding of 125I-labeled Dcn in assay [3] was < 10%.

In the case of fibrinogen (KabiVitrium), in assay [3], the percent inhibition of binding of 125I-labeled Dcn is < 10%.

As to thyroglobulin type II (Sigma), in assay [3], the percent inhibition of binding of 125I-labeled Dcn is < 10%.
